Assay results from patent US20160083480A1 (Zymeworks, published 2016).

B1: Variant 880 (bi-specific anti-HER2-HER3 antibody; B1D2 scFv on chain A, H3 scFv on chain B, heterodimeric Fc) (bispecific antibody)
scFv-Fc A: QVQLVQSGAEVKKPGESLKISCKGSGYSFTSYWIAWVRQMPGKGLEYMGLIYPGDSDTKYSPSFQGQVTISVDKSVSTAYLQWSSLKPSDSAVYFCARHDVGYCTDRTCAKWPEWLGVWGQGTLVTVSSGGGGSSGGGSGGGGSQSVLTQPPSVSAAPGQKVTISCSGSSSNIGNNYVSWYQQLPGTAPKLLIYDHTNRPAGVPDRFSGSKSGTSASLAISGFRSEDEADYYCASWDYTLSGWVFGGGTKLTVLGAAEPKSSDKTHTCPPCPAPELLGGPSVFLFPPKPKDTLMISRTPEVTCVVVDVSHEDPEVKFNWYVDGVEVHNAKTKPREEQYNSTYRVVSVLTVLHQDWLNGKEYKCKVSNKALPAPIEKTISKAKGQPREPQVYTYPPSRDELTKNQVSLTCLVKGFYPSDIAVEWESNGQPENNYKTTPPVLDSDGSFALVSKLTVDKSRWQQGNVFSCSVMHEALHNHYTQKSLSLSPGK
scFv-Fc B: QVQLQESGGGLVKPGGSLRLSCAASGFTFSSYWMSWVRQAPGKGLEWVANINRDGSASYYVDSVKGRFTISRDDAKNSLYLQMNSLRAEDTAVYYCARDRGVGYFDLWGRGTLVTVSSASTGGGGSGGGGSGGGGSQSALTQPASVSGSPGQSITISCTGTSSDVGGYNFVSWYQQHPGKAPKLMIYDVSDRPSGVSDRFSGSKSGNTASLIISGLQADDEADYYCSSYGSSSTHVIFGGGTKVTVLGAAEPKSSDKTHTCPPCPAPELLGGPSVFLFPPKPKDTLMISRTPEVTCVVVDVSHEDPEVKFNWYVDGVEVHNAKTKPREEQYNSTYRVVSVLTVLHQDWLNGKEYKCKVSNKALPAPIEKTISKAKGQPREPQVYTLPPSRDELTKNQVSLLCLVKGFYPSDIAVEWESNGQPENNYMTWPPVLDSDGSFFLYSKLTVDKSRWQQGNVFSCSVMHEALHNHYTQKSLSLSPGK
notes: also called v880; bsAb variant 880
B2: v877 (monospecific bivalent antibody with two identical HER3-binding scFvs connected to a homodimeric Fc) (antibody, V domains shown)
VH: QVQLQESGGGLVKPGGSLRLSCAASGFTFSSYWMSWVRQAPGKGLEWVANINRDGSASYYVDSVKGRFTISRDDAKNSLYLQMNSLRAEDTAVYYCARDRGVGYFDLWGRGTLVTVSS
VL: QSALTQPASVSGSPGQSITISCTGTSSDVGGYNFVSWYQQHPGKAPKLMIYDVSDRPSGVSDRFSGSKSGNTASLIISGLQADDEADYYCSSYGSSSTHVIFGGGTKVTVL
notes: also called variant 877; monospecific bivalent control for HER3

Assays:
[1] = biological target: T1, HER2 and HER3 co-expressed on human tumour cells (human, UniProt P04626 23-1255; P21860 20-1342); experiment: cell-based or functional assay
[2] = biological target: T1, HER2 and HER3 co-expressed on human …; experiment: flow cytometry on MALME-3M cells, fluorochrome-labelled secondary antibody
Description: (§1) The FACS analysis was carried out as described below.
(§2) Cells were washed with PBS and resuspended in DMEM containing 10% FBS at 1×10⁵ cells/100 μl. 100 μl cell suspension was added into each microcentrifuge tube, followed by 10 μl/tube of the antibody variants. The tubes were incubated for 2 hr 4° C. on a rotator. The microcentrifuge tubes were centrifuged for 2 min 2000 RPM at room temperature and the cell pellets washed with 500 μl media. Each cell pellet was resuspended 100 μl of fluorochrome-labelled secondary antibody diluted in media to 2 μg/sample. The samples were then incubated for 1 hr at 4° C. on a rotator. After incubation, the cells were centrifuged for 2 min at 2000 RPM and washed in media. The cells were resuspended in 500 μl media, filtered in tube containing 5 μl propidium iodide (PI) and analyzed on a BD™ LSRII flow cytometer according to the manufacturer's instructions.

[3] = biological target: T2, HER3 on human tumour cells (human, UniProt P21860 20-1342); experiment: as above
T2 construct: whole, on cells; also called ErbB3
Description: as §1, §2

Row | Binder | BT-474 cell viability relative to untreated cells (Sulforhodamine B, 6 days, no heregulin) [1] [% increase] | EC50 (read off the curve) [2] [nM] | binding result [3]
1 | B1 | 36 | ~10 | 
2 | B2 |  |  | binds
